Assay results: patent publication US10973857B2, “Mesenchymal stem cell and use thereof for treatment of muscle injury and muscle-associated diseases” (EXOSTEM BIOTEC LTD., priority 2016, dated 2021)

Tested on: MSCs
Test: Protocol 3 differentiation of MSCs to hybrid cells with growth factors
Assay type: cell-based
Conditions: individually and in combination, as replacements or in combination with HGF and PDGF
Experimental: A shortened third protocol (Protocol 3) was examined and was also found to produce MSC-muscle cell hybrid cells. The MSCs were cultured in normal MSC culturing conditions followed by supplementation of the media for 24 hours with 5-AZA. The cells were than grown in media supplemented with 2% horse serum and HGF and PDGF for 2 weeks. […] The following growth factors were tested both individually and in combination as replacements or in combination with HGF and PDGF: EGF, IGF1, PDGFAA, PDGFBB, and VEGF. […] Additionally, the protocol could be halted by moving the treated MSCs to non-supplemented MSC media. Hybrid cells that were produced could thus be halted from further differentiation.
All three protocols were also performed with MSCs that had first undergone myogenic priming as described above.

Row | Molecule | production of hybrid cells from MSCs
1 | PDGFBB: growth factor (protein, UniProt P01127 82-190, looked up, BB homodimer, growth factor) Platelet-derived growth …: SLGSLTIAEPAMIAECKTRTEVFEISRRLIDRTNANFLVWPPCVEVQRCSGCCNNRNVQCRPTQVQLRPVQVRKIEIVRKKPIFKKATVTLEDHLACKCETVAAARPVT | found to produce hybrid cells
2 | EGF: growth factor (protein, UniProt P01133 23-1207, looked up, Pro-epidermal growth factor) Pro-epidermal growth factor: PQHWSCPEGTLAGNGNSTCVGPAPFLIFSHGNSIFRIDTEGTNYEQLVVDAGVSVIMDFHYNEKRIYWVDLERQLLQRVFLNGSRQERVCNIEKNVSGMAINWINEEVIWSNQQEGIITVTDMKGNNSHILLSALKYPANVAVDPVERFIFWSSEVAGSLYRADLDGVGVKALLETSEKITAVSLDVLDKRLFWIQYNREGSNSLICSCDYDGGSVHISKHPTQHNLFAMSLFGDRIFYSTWKMKTIWIANKHTGKDMVRINLHSSFVPLGELKVVHPLAQPKAEDDTWEPEQKLCKLRKGNCSSTVCGQDLQSHLCMCAEGYALSRDRKYCEDVNECAFWNHGCTLGCKNTPGSYYCTCPVGFVLLPDGKRCHQLVSCPRNVSECSHDCVLTSEGPLCFCPEGSVLERDGKTCSGCSSPDNGGCSQLCVPLSPVSWECDCFPGYDLQLDEKSCAASGPQPFLLFANSQDIRHMHFDGTDYGTLLSQQMGMVYALDHDPVENKIYFAHTALKWIERANMDGSQRERLIEEGVDVPEGLAVDWIGRRFYWTDRGKSLIGRSDLNGKRSKIITKENISQPRGIAVHPMAKRLFWTDTGINPRIESSSLQGLGRLVIASSDLIWPSGITIDFLTDKLYWCDAKQSVIEMANLDGSKRRRLTQNDVGHPFAVAVFEDYVWFSDWAMPSVMRVNKRTGKDRVRLQGSMLKPSSLVVVHPLAKPGADPCLYQNGGCEHICKKRLGTAWCSCREGFMKASDGKTCLALDGHQLLAGGEVDLKNQVTPLDILSKTRVSEDNITESQHMLVAEIMVSDQDDCAPVGCSMYARCISEGEDATCQCLKGFAGDGKLCSDIDECEMGVPVCPPASSKCINTEGGYVCRCSEGYQGDGIHCLDIDECQLGEHSCGENASCTNTEGGYTCMCAGRLSEPGLICPDSTPPPHLREDDHHYSVRNSDSECPLSHDGYCLHDGVCMYIEALDKYACNCVVGYIGERCQYRDLKWWELRHAGHGQQQKVIVVAVCVVVLVMLLLLSLWGAHYYRTQKLLSKNPKNPYEESSRDVRSRRPADTEDGMSSCPQPWFVVIKEHQDLKNGGQPVAGEDGQAADGSMQPTSWRQEPQLCGMGTEQGCWIPVSSDKGSCPQVMERSFHMPSYGTQTLEGGVEKPHSLLSANPLWQQRALDPPHQMELTQ | found to produce hybrid cells
